Our source for the protein stability index values is the supplement of paper PMC10724198.

± gives the standard deviation of the averaged measurements.
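Note: PSI is a weighted mean of sequencing reads over stability bins, variants kept only with over 10 reads, mCherry proximal and sfGFP distal, peptide attached via GGGS linker.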

In this series the test system is Saccharomyces cerevisiae. The experiment in a line: protein stability index of tFT-peptide fusion (C-terminal peptide) (PSI (0-1 scale)); higher = more stable (slower turnover). The following applies: genetic background: wild type; temperature: 30 C. The protocol: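 Multiplexed protein stability (MPS) profiling in S. cerevisiae. Random 12-aa peptides (tFT-X12 library) are fused to the C-terminus of a sfGFP-mCherry tandem fluorescent timer, after mCherry and a GGGS linker. Cells are FACS-sorted into 8 mCherry/sfGFP bins and deep-sequenced. The protein stability index (PSI) is the read-weighted bin average, scaled from 0 (unstable) to 1 (stable). Only peptides with >10 reads are reported; cells were grown at 30 °C in SC-His with glucose.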
Take FTPLPHAHPPPP: the protein stability index came to 0.664 ± 0.0034.
Next, FTRFWTKANDPT: 0.6913 ± 0.0014; FTVSPFIFLFSP: 0.653 ± 0.0074.
FVCRQSGIWHLR registered a protein stability index of 0.686 ± 0.029.
With FVFGSVLPGPTC, the protein stability index amounted to 0.692 ± 0.0098.
The figure for FVGVRTLSRIKI is 0.696 ± 0.053.
The figure for FVHSTLPPSFSI is 0.735 ± 0.019; for FVIAGDLYGLYV it is 0.658 ± 0.045; for FVKEGRVGTARS it is 0.687 ± 0.099.
As to FVPFVLFLLRPL, the protein stability index is 0.582 ± 0.022.
The figure for FVPQPFTPPSSF is 0.685 ± 0.065; for FVRFLVGGLGRW it is 0.606 ± 0.05.
FVRLFSGTLKSV registered a protein stability index of 0.687 ± 0.033.
The figure for FVSTSFPPWFSL is 0.684 ± 0.019; for FVYHGLVGKRMV it is 0.666 ± 0.051; for FWECEYVIDDVD it is 0.69053 ± 0.00035.
Next, FWEHFVLSVRPE: 0.758 ± 0.076; FWFFRGALVHPA: 0.599 ± 0.019.
The figure for FWSCSTGHERVV is 0.711 ± 0.03; for FYFRFPGFLAGF it is 0.5687 ± 0.0052; for FYGCRLLFLKAR it is 0.5273 ± 0.00073.
For the sequence FYYRYDRRTRCV, the protein stability index came to 0.548 ± 0.012.
The figure for GAAARSGSRKEL is 0.631 ± 0.029; for GAAVSGGRARCP it is 0.712 ± 0.064; for GACDGEGGSRVR it is 0.611 ± 0.0075.
The figure for GAEPTPYVAEAI is 0.701 ± 0.026; for GAFSVPKAKNAL it is 0.699 ± 0.1; for GAGAHVPCSGRQ it is 0.6754 ± 0.0034.
Next, GAGEGVGSVVVR: 0.632 ± 0.052; GAGGGGNLGWLR: 0.6788 ± 0.0063; GAGGGSGGGQPG: 0.656 ± 0.032.
For GAGGSGRRIGCR, the protein stability index amounted to 0.762 ± 0.052.
Next, GAGGVRCPWVFG: 0.674 ± 0.0075; GAGNVGSGCGGG: 0.631 ± 0.035; GAGRGRLGVGPV: 0.67 ± 0.066.
The figure for GAGRRRAQEQQT is 0.728 ± 0.015.
Next, GAKHDSSRQSLR: 0.746 ± 0.086.
In turn, GALARFEGAVRV had a protein stability index of 0.702 ± 0.012.
Consider GAMLAGRHGWGL, for which the protein stability index is 0.715 ± 0.04.
As to GAPRYRLQRPVP, the protein stability index was 0.672 ± 0.029.
The figure for GAPTPPGAPPPA is 0.6642 ± 0.0048.
Next, GARGGGQSSFGE: 0.666 ± 0.012; GARGRGLVTESA: 0.703 ± 0.035; GARVGDRALASG: 0.7089 ± 0.0069.
GATDMVTSGEWV showed a protein stability index of 0.757 ± 0.021.
The figure for GATLETPIGCGR is 0.666 ± 0.0074; for GAVHQLGTCLFF it is 0.671 ± 0.045.
The sequence GAYSSFNGNSGD returned a protein stability index of 0.681 ± 0.064.
Next, GCCGGGGVEGLE: 0.695 ± 0.022.
The figure for GCGFYRTSRVPS is 0.717 ± 0.059; for GCGGVWGRSEKY it is 0.684 ± 0.019.
GCGHVFEVNYEC: the protein stability index turned out to be 0.6206 ± 0.0053.
Next, GCGKRVVVVSEL: 0.6386 ± 0.00072.
Next, GCGLGEEGSSGV: 0.647 ± 0.0091.
The figure for GCGRYWGVVRGC is 0.66 ± 0.037; for GCHRRDALRTGD it is 0.667 ± 0.053.
In the case of GCLFLCPLSPLI, the protein stability index came out at 0.685 ± 0.026.
Next, GCLIAGGIDCPP: 0.66 ± 0.072; GCPRSCYIPSSV: 0.72 ± 0.011; GCPSGRDIQSSH: 0.643 ± 0.01.
The figure for GCRELVRCVMLG is 0.669 ± 0.083.
The figure for GCRRGFRKGQDC is 0.645 ± 0.023.
Consider GCSACLVSSLAG, for which the protein stability index was found to be 0.63129 ± 4e-05.
The figure for GCSGRRGRGGRG is 0.743 ± 0.046.
The sequence GCTTDQIENEIR returned a protein stability index of 0.704 ± 0.033.
The figure for GCYGRVLELAWR is 0.552 ± 0.035; for GDDGGSGGCVER it is 0.6606 ± 0.0051.
Next, GDDVGTEVIVET: 0.684 ± 0.0094; GDGQETEKNNAE: 0.604 ± 0.046; GDGRCAVPFWWG: 0.805 ± 0.074.
Next, GDKGLRPNMGLV: 0.645 ± 0.0099; GDRGGLARAGGA: 0.753 ± 0.065; GDSGPDDDLGIS: 0.667 ± 0.065.
GDSWVVRSGVWV returned a protein stability index of 0.734 ± 0.13.
The figure for GEAASEKKQEAG is 0.644 ± 0.084.
Next, GEDGCGGSEAGG: 0.656 ± 0.028; GEGALTGGAGGQ: 0.647 ± 0.0074; GEGCPAGGHGCE: 0.6864 ± 0.0063.
The sequence GEGGGAGGLEWG had a protein stability index of 0.687 ± 0.081.
The figure for GEGRWWGSFWVG is 0.672 ± 0.019.
On to GEGSQTGSLIPL, for which the protein stability index is 0.71 ± 0.031.
Next, GENAIVEVWAGG: 0.686 ± 0.022; GFCCLGGVRPSV: 0.655 ± 0.027; GFCRKESVRCEK: 0.683 ± 0.018.
As to GFDFLHHIVASS, the protein stability index stood at 0.728 ± 0.017.
In turn, GFEAFGPFIPAF displayed a protein stability index of 0.681 ± 0.019.
The figure for GFEVAFSCSSWW is 0.716 ± 0.038.
The figure for GFGKVIMEIESI is 0.715 ± 0.043; for GFLGCGSGCGGG it is 0.777 ± 0.1; for GFLPDSKVKNPF it is 0.673 ± 0.029.
In turn, GFMSFAVTCGLL showed a protein stability index of 0.688 ± 0.11.
Turning to GFQIVCSAGERV, the protein stability index was found to be 0.611 ± 0.027.
Consider GFSLLGPFAFWV, for which the protein stability index was 0.688 ± 0.066.
Take GFSSSFAGGLLF: the protein stability index was 0.763 ± 0.036.
The figure for GFSTCCLFWLTV is 0.529 ± 0.029.
The figure for GFVLSFADLLGV is 0.653 ± 0.054; for GFVQGNNGFLMK it is 0.682 ± 0.034.
The figure for GFWLVSCPWLLF is 0.612 ± 0.14.
As for GFYAMWNSIFWF, the protein stability index worked out at 0.743 ± 0.001.
The figure for GGAAGRRAAEVG is 0.694 ± 0.013.
Consider GGAPAPPSRRPW, for which the protein stability index was 0.696 ± 0.032.
Next, GGAVSRVGEGGR: 0.785 ± 0.02; GGCCLWVGFPGG: 0.6957 ± 0.0051.
As for GGCSLRWARCRW, the protein stability index was 0.686 ± 0.078.
GGCVSRPLGRCV: the protein stability index amounted to 0.648 ± 0.088.
Next, GGDGAVSRRWGR: 0.685 ± 0.015.
The figure for GGDGGLVMGGGN is 0.684 ± 0.018; for GGDVCGWWCWRG it is 0.645 ± 0.098; for GGDWVVVALLGV it is 0.596 ± 0.017.
GGEVGRGRLGVV gave a protein stability index of 0.628 ± 0.018.
Next, GGFALIWQRVCP: 0.705 ± 0.011; GGGACRVCGCEV: 0.648 ± 0.0067.
Next, GGGECLWNKQAV: 0.687 ± 0.024; GGGGAGGGAGGG: 0.616 ± 0.042.
The figure for GGGGCVGEWWGR is 0.7423 ± 0.0039; for GGGGEGPGKSPR it is 0.669 ± 0.14.
